Experimental data as given in article PMC6052341, “Phosphorylation of FtsZ and FtsA by a DNA Damage-Responsive Ser/Thr Protein Kinase Affects Their Functional Interactions in Deinococcus radiodurans” (mSphere, 2018).

B1: FtsA of Deinococcus radiodurans, purified recombinant (natural protein, UniProt Q9RWN6 1-517, looked up)
chain: MRENSIIVGLDIGTTKITTVIGEVAPDGTIDIIGEGSVPSEGMKRGSVINLERATQAIKQSLHAAERVSGVRAWNVFVSVGGNHTKAMTSHGLAAIRRQQEISPPDVERAIENARAVPLDPSLEILHTIPQEYVVDGQEGIKNPVGMHGVRLEVDVHIVAGSAGPLLNLRRCVQEAGLQIEGFVLHSLASGLATLDHSEQNQTTVVVDMGGGTTDIGVFKRGNLAHSASIPIGGDHVTADLAQILKIPMEEAEKVKRHYGAAIPELADQELTLEITTASGATHAISAYELSRVIRPRVSEIYGLIRDEIDQALGPVELVAQSVVLTGGGAQLPGAVDLARERFRLPTRLGRPRGIHGLSDIVGDPAHACSVGMVLYGITQDGRVPSGLDDGGDPAGYTEYAGRHDQGYPQGGYPAPGYLTAPTGGTHVAPQGTPGSYPGPGYVVSGGQSQGQPYPPMPNTGSHSAGVPSMSGPVIGGQVVGVDPHAQVLVDGQPQRPPSGPKVSLMDRVRSLFRDWF
B2: FtsZ of Deinococcus radiodurans, purified recombinant (natural protein, UniProt Q9RWN5 1-371, looked up)
chain: MQAARIRVIGLGGAGNNAVNRMIESGLEGVEFIAGNTDAQVLAKSHAEVRIQLGDRLTRGLGAGADPKVGEEAAVEDRDRIKEYLDDTDMLFITAGMGGGTGTGSAPVVAEIAREMGILTVAIVTRPFKFEGPKRMRVAEEGMSKLADRVDGMIVVNNEKLLTAVDKKVSFREAFLIADRVLYYGVKGISDVINVEGMINLDFADVRNLLANSGTVLMGIGAGRGDKMAEEAAMSAIHSPLLERGIEGARRILVNVTGGYDLSMTDANEIVEKIREATGFDDPDILFGITPDEAAGDEVRVTVIATGFGDNTYAAPLGGVVSSGRGGYDQGGYGSGLVRPVRGGQGGLGGGSSYDPKDYDIPAFLRNVGGQ
notes: FtsZ, cell division protein of Deinococcus radiodurans R1; also called FZ; unphosphorylated FtsZ; source: E. coli BL21(DE3) pLysS from pFTSZ, purified (nickel-chelating Sepharose, Ni-NTA agarose)

Columns and labels:
[1] = target: B2; assay: cell-based or functional assay
[2] = target: T1, P-FtsA, phosphorylated form of FtsA of Deinococcus radiodurans, purified recombinant (Deinococcus radiodurans, UniProt Q9RWN6 1-517, phosphorylated by co-expressed RqkA (checked with anti-phospho-Ser/Thr antibodies); sites reported for FtsA: threonine 272, serine 370 and serine 386); assay: SPR; FtsA or P-FtsA (25 µM) immobilised on a bare gold sensor chip by EDC-NHS chemistry at 20°C, about 200 response units; running buffer 20 mM Tris pH 7.6; FtsZ or P-FtsZ (6 to 30 µM) with 1 mM GTP and 1 mM MgCl2 in the mobile phase; AutoLab Esprit; conditions: both partners purified
T1 construct: FtsA, cell division protein of Deinococcus radiodurans R1; same plasmid as m3, co-expressed with the kinase RqkA; also called phosphorylated FtsA
T1 sequence (looked up): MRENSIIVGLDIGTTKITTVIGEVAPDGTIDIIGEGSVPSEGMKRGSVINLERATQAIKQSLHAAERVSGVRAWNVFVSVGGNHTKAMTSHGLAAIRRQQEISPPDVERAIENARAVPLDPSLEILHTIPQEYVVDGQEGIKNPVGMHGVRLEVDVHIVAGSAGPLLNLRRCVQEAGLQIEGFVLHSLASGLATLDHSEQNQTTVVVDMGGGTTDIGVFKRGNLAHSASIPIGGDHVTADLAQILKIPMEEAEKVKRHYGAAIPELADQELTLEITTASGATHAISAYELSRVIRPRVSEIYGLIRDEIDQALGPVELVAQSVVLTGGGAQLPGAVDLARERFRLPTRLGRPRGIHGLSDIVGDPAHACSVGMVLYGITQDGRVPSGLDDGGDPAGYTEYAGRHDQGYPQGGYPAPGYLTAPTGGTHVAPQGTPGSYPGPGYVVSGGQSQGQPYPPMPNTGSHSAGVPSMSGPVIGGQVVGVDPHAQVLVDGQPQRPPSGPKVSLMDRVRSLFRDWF

[3] = target: B1; assay: as above; conditions: both partners purified
[4] = target: T1, P-FtsA, phosphorylated form of FtsA of …; assay: SPR; reverse manner: FtsZ or P-FtsZ (20 µM) immobilised on a bare gold sensor chip; FtsA or P-FtsA (4 to 20 µM) in the mobile phase; conditions: both partners purified
[5] = target: B1; assay: as above; conditions: both partners purified

With B1 the “stimulation of the GTPase activity of 5 µM FtsZ by 5 µM FtsA (malachite green assay; TLC of [32P]GTP to [32P]GDP)” value [1] was about 1.5 fold.

With B2 the Kd [2] was 8.35 µM, the Kd [3] was 6.83 µM and the Kd [4] was 5.17 µM. It also gave a Kd [5] of 7.93 µM.

B3: P-FtsZ, phosphorylated form of FtsZ of Deinococcus radiodurans, purified recombinant (natural protein, UniProt Q9RWN5 1-371, looked up)
chain: MQAARIRVIGLGGAGNNAVNRMIESGLEGVEFIAGNTDAQVLAKSHAEVRIQLGDRLTRGLGAGADPKVGEEAAVEDRDRIKEYLDDTDMLFITAGMGGGTGTGSAPVVAEIAREMGILTVAIVTRPFKFEGPKRMRVAEEGMSKLADRVDGMIVVNNEKLLTAVDKKVSFREAFLIADRVLYYGVKGISDVINVEGMINLDFADVRNLLANSGTVLMGIGAGRGDKMAEEAAMSAIHSPLLERGIEGARRILVNVTGGYDLSMTDANEIVEKIREATGFDDPDILFGITPDEAAGDEVRVTVIATGFGDNTYAAPLGGVVSSGRGGYDQGGYGSGLVRPVRGGQGGLGGGSSYDPKDYDIPAFLRNVGGQ
modifications: phosphorylated by co-expressed RqkA (checked with anti-phospho-Ser/Thr antibodies); sites mapped on FtsZ phosphorylated by RqkA in vitro: serine 235 and serine 335
notes: FtsZ, cell division protein of Deinococcus radiodurans R1; same plasmid as m1, co-expressed with the kinase RqkA; also called PFZ; phosphorylated FtsZ
Binder B3 has a Kd [2] of 15 µM, a Kd [3] of 10.3 µM and a Kd [4] of 58.3 µM. For the same binder, the Kd [5] was 65.2 µM.
